Results published in US20240408235.

Assays:
Test in all cases: cell_activity
[1] = tested on: AAT 35-36x.70 meganuclease (synthetic construct (I-CreI derived)?); conditions: PiZ mouse liver, scAAV repair (3.5% ssAAV)
[2] = tested on: AAT 37-38L.158 meganuclease (synthetic construct (I-CreI derived)?); conditions: HEK293, 25 ng RNA
[3] = tested on: AAT 37-38L.167 meganuclease (synthetic construct (I-CreI derived)?); conditions: HEK293, 25 ng RNA
[4] = tested on: AAT 37-38L.175 meganuclease (synthetic construct (I-CreI derived)?); conditions: HEK293, 25 ng RNA
[5] = tested on: AAT 37-38L.24 meganuclease (synthetic construct (I-CreI derived)?); conditions: HEK293, 25 ng RNA
[6] = tested on: AAT 37-38L.262 meganuclease (synthetic construct (I-CreI derived)?); conditions: PiZ mouse liver, LNP-A 0.5 mg/kg; 45% at low dose
[7] = tested on: AAT 37-38x.50 meganuclease (synthetic construct (I-CreI derived)?); conditions: PiZ mouse liver, AAV8 delivery with repair template
[8] = tested on: AAT 37-38x.61 meganuclease (synthetic construct (I-CreI derived)?); conditions: Hep3B, day 6, 50 ng mRNA
[9] = tested on: AAT 9-10x.311 meganuclease (synthetic construct (I-CreI derived)?); conditions: PiZ mouse liver, AAV8; groups 1, 3, 4 (~10% in group 2); site highly methylated
[10] = tested on: AAT 33-34x.13 meganuclease (synthetic construct (I-CreI derived)?); conditions: PiZ mouse liver, ssAAV repair (11% scAAV)
[11] = tested on: AAT 43-44L.105 meganuclease (synthetic construct (I-CreI derived)?); conditions: PiZ mouse liver, AAV8 delivery with repair template
[12] = tested on: AAT 43-44L.132 meganuclease (synthetic construct (I-CreI derived)?); conditions: HEK293, 25 ng RNA
[13] = tested on: AAT 43-44L.276 meganuclease (synthetic construct (I-CreI derived)?); conditions: HEK293, 25 ng RNA
[14] = tested on: AAT 43-44L.384 meganuclease (synthetic construct (I-CreI derived)?); conditions: HEK293, 25 ng RNA
[15] = tested on: AAT 43-44L.47 meganuclease (synthetic construct (I-CreI derived)?); conditions: HEK293, 25 ng RNA
[16] = tested on: AAT 43-44x.58 meganuclease (synthetic construct (I-CreI derived)?); conditions: PiZ mouse liver, AAV8 delivery with repair template
[17] = tested on: AAT 41-42L.104 meganuclease (synthetic construct (I-CreI derived)?); conditions: HEK293, 25 ng RNA
[18] = tested on: AAT 41-42L.153 meganuclease (synthetic construct (I-CreI derived)?); conditions: HEK293, 25 ng RNA
[19] = tested on: AAT 41-42L.185 meganuclease (synthetic construct (I-CreI derived)?); conditions: HEK293, 25 ng RNA
[20] = tested on: AAT 41-42L.294 meganuclease (synthetic construct (I-CreI derived)?); conditions: HEK293, 25 ng RNA
[21] = tested on: AAT 41-42L.42 meganuclease (synthetic construct (I-CreI derived)?); conditions: HEK293, 25 ng RNA
[22] = tested on: AAT 41-42x.32 meganuclease (synthetic construct (I-CreI derived)?); conditions: Hep3B, day 6, 50 ng mRNA

Question: “GGCCTGGTCACACTTGGGTTTA (double strand) [AAT 35-36 recognition sequence]” was tested. Which activity [1] did it give?
Answer: The activity was 7.5 % insertions.

Question: Which activity [2] does the source give for “CCCCACTTTGCACAACTGGGGA (double strand) [AAT 37-38 recognition sequence]” here?
Answer: The activity was 90 % indels.

Question: What about the activity [3] of the same sequence?
Answer: Its activity is 86 % indels.

Question: What about the activity [4] of the same sequence?
Answer: The activity was 90 % indels.

Question: And the activity [5]?
Answer: The activity was 90 % indels.

Question: What about the activity [6] of the same sequence?
Answer: The activity was 53 % indels.

Question: And the activity [7]?
Answer: Its activity is 4 % insertions.

Question: And the activity [8]?
Answer: Its activity is 80 % indels.

Question: For “TGCCCGCTCACACCAGACCCTG (double strand) [AAT 9-10 recognition sequence]”, which activity [9] is on record?
Answer: The activity was 20 % indels.

Question: How did the activity [10] turn out when “TTCAGACAGTTGCTCAACCTCT (double strand) [AAT 33-34 recognition sequence]” was run?
Answer: The activity was 10 % insertions.

Question: Which activity [11] does the source give for “AGGACCTAGATGTAGGATTCTG (double strand) [AAT 43-44 recognition sequence]” here?
Answer: The activity was 14 % insertions.

Question: And the activity [12]?
Answer: The activity was 52 % indels.

Question: What about the activity [13] of the same sequence?
Answer: The activity was 16 % indels.

Question: And the activity [14]?
Answer: Its activity is 26 % indels.

Question: And the activity [15]?
Answer: Its activity is 52 % indels.

Question: And the activity [16]?
Answer: The activity was 3 % insertions.

Question: Which activity [17] does the source give for “TGAGGATCCTTGTGAGTGTTGG (double strand) [AAT 41-42 recognition sequence]” here?
Answer: Its activity is 50 % indels.

Question: And the activity [18]?
Answer: The activity was 50 % indels.

Question: And the activity [19]?
Answer: The activity was 20 % indels.

Question: What about the activity [20] of the same sequence?
Answer: Its activity is 40 % indels.

Question: What about the activity [21] of the same sequence?
Answer: The activity was 77 % indels.

Question: And the activity [22]?
Answer: The activity was 17 % indels.
